What was measured:
[1] = biological target: T1, subunit 1 of the type I interferon receptor (IFNAR1), in patients (human, UniProt P17181); experiment: cell-based or functional assay
T1 sequence: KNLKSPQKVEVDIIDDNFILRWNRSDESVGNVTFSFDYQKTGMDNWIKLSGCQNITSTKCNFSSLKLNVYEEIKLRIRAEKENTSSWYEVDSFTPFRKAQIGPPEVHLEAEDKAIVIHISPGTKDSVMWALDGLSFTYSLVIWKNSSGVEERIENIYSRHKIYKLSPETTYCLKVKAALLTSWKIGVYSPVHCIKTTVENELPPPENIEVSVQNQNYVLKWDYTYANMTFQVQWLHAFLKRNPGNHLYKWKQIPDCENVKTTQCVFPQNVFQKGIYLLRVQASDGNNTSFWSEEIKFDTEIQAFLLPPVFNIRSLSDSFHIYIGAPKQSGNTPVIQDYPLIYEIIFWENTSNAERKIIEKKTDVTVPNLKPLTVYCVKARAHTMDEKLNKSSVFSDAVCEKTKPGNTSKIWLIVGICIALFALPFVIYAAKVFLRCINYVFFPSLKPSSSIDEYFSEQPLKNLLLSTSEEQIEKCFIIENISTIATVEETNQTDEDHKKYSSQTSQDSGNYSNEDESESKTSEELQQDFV

[2] = biological target: T1, subunit 1 of the type I interferon …; experiment: cell-based or functional assay; remark: listed apart in the source

IC80: approximate anifrolumab concentration required to produce 80% of the maximum inhibition of the 21-IFNGS expression relative to baseline (PK/PD model estimate) [1]: 3.88 mg/L
IC50 (nM): anifrolumab concentration required to produce 50% of the maximum inhibition of the 21-IFNGS expression relative to baseline (PK/PD model estimate from TULIP-1 and TULIP-2 data) [2]: 6.56 nM
B1: Anifrolumab (antibody, V domains shown)
VH: EVQLVQSGAEVKKPGESLKISCKGSGYIFTNYWIAWVRQMPGKGLESMGIIYPGDSDIRYSPSFQGQVTISADKSITTAYLQWSSLKASDTAMYYCARHDIEGFDYWGRGTLVTVSS
VL: EIVLTQSPGTLSLSPGERATLSCRASQSVSSSFFAWYQQKPGQAPRLLIYGASSRATGIPDRLSGSGSGTDFTLTITRLEPEDFAVYYCQQYDSSAITFGQGTRLEIKR

From patent publication US20230365698A1, “ANTI-IFNAR1 DOSING REGIME FOR SUBCUTANEOUS INJECTION” (published 2023)
